Literature values in patent US11911476B2, “Process for preparing a drug delivery composition” (PK MED SAS, priority 2017, dated 2024).

Conditions: temperature at which half of the drug loses its activity

| Substance | denaturation temperature |
| --- | --- |
| Adalimumab | about 75 °C |
| lysozyme | 76 °C |
